This passage reports protein stability index results from the supplement of paper PMC10567573.

The chains are these.
B1: SPDEF (parent)
chain: FQELAGKELCAMSEEQFRQRSPLG
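Note: lentivirally expressed fusions sorted by FACS into six bins by GFP to DsRed ratio, PSI derived from sequencing read proportions per bin multiplied by bin number.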

In this series the parent is B1. Kind of series: protein stability index of a GFP-peptide fusion (GPS, HEK-293T) (PSI 1-6); higher = more stable. The following applies: c terminus: a fixed tail appended.
With FQELAGKELCAMSEEQFRQRSPLM [G24M], the protein stability index turned out to be 2.78.
Under FQELAGKELCAMSEEQFRQRQPLG [S21Q] stands 2.98; under FQELAGKELCAMSEEQFRQRWPLG [S21W], 2.4; under FQELAGKELCAMSEEQFRQRNPLG [S21N], 2.6.
The result for FQELAGKELCAMSEEQFRQRIPLG [S21I] reads 2.43; that for FQELAGKELCAMSEEQFRQRVPLG [S21V], 2.99; that for FQELAGKELCAMSEEQFRQRGPLG [S21G], 2.52.
On to FQELAGKELCAMSEEQFRVRSPLG [Q19V], for which the protein stability index worked out at 2.42.
Take FQELAGKELCAMSEEQFRTRSPLG [Q19T]: the protein stability index was 3.11.
The result for FQELAGKELCAMSEEQFRERSPLG [Q19E] reads 4.17; that for FQELAGKELCAMSEEQMRQRSPLG [F17M], 2.66; that for FQELAGKELCAMSEEQKRQRSPLG [F17K], 3.25.
Under FQELAGKELCAMSEEQWRQRSPLG [F17W] stands 2.67; under FQELAGKELCAMSEEQERQRSPLG [F17E], 3.85; under FQELAGKELCAMSEEQLRQRSPLG [F17L], 3.14.
For FQELAGKELCAMSEEQNRQRSPLG [F17N], the protein stability index worked out at 3.02.
Regarding FQELAGKELCAMSEEQDRQRSPLG [F17D], the protein stability index came out at 3.85.
FQELAGNELCAMSEEQFRQRSPLG [K7N]: the protein stability index worked out at 2.84.
Under FQELAGFELCAMSEEQFRQRSPLG [K7F] stands 2.18.
On to FQELAGGELCAMSEEQFRQRSPLG [K7G], for which the protein stability index is 3.
The result for FQELAGLELCAMSEEQFRQRSPLG [K7L] reads 2.3; that for FQELAGQELCAMSEEQFRQRSPLG [K7Q], 4.
As for FQELAGCELCAMSEEQFRQRSPLG [K7C], the protein stability index came to 1.99.
Take FQELAGDELCAMSEEQFRQRSPLG [K7D]: the protein stability index came to 4.25.
Regarding FQELAGPELCAMSEEQFRQRSPLG [K7P], the protein stability index is 3.35.
In the case of FQELALKELCAMSEEQFRQRSPLG [G6L], the protein stability index was 2.44.
The result for FQELATKELCAMSEEQFRQRSPLG [G6T] reads 3.32.
Turning to FQELADKELCAMSEEQFRQRSPLG [G6D], the protein stability index is 3.62.
The result for FQELAIKELCAMSEEQFRQRSPLG [G6I] reads 2.69; that for FQELAPKELCAMSEEQFRQRSPLG [G6P], 3.7.
The result for FQELANKELCAMSEEQFRQRSPLG [G6N] reads 3.4.
Under FQELAGKELCAMSEPQFRQRSPLG [E15P] stands 2.41; under FQELAGKELCAMSERQFRQRSPLG [E15R], 2.5; under FQELAGKELCAMSEQQFRQRSPLG [E15Q], 2.71.
As for FQELAGKELCAMSEDQFRQRSPLG [E15D], the protein stability index came to 2.74.
Under FQELAGKELCAMSEMQFRQRSPLG [E15M] stands 2.19; under FQELAGKELCAMSEYQFRQRSPLG [E15Y], 2.04; under FQELAGKELCAMSEAQFRQRSPLG [E15A], 3.05.
The result for FQELAGKELCAMSETQFRQRSPLG [E15T] reads 2.38; that for FQELAGKELCAMSEIQFRQRSPLG [E15I], 2.04.
FQELAGKELCAMSESQFRQRSPLG [E15S]: the protein stability index turned out to be 2.21.
Under FQELAGKELFAMSEEQFRQRSPLG [C10F] stands 2; under FQELAGKELTAMSEEQFRQRSPLG [C10T], 3.52.
As to FQELAGKELGAMSEEQFRQRSPLG [C10G], the protein stability index amounted to 3.05.
The result for FQELAGKELHAMSEEQFRQRSPLG [C10H] reads 3.12.
The result for FQELAGKELEAMSEEQFRQRSPLG [C10E] reads 3.9; that for FQELAGKELRAMSEEQFRQRSPLG [C10R], 3.12; that for FQELAGKELNAMSEEQFRQRSPLG [C10N], 3.1.
The result for FQELAGKELCTMSEEQFRQRSPLG [A11T] reads 2.31.
Take FQELAGKELCMMSEEQFRQRSPLG [A11M]: the protein stability index worked out at 2.35.
The result for FQELAGKELCEMSEEQFRQRSPLG [A11E] reads 3.49; that for FQELAGKELCRMSEEQFRQRSPLG [A11R], 2.52.
Under FQELAGKELCPMSEEQFRQRSPLG [A11P] stands 3.56; under FQELAGKELCVMSEEQFRQRSPLG [A11V], 1.94.
The result for FQELAGKELCSMSEEQFRQRSPLG [A11S] reads 2.31; that for FQELAGKELCNMSEEQFRQRSPLG [A11N], 2.91; that for FQELAGKELCYMSEEQFRQRSPLG [A11Y], 2.67.
FQELAGKELCAMVEEQFRQRSPLG [S13V]: the protein stability index was found to be 3.05.
Under FQELAGKELCAMWEEQFRQRSPLG [S13W] stands 2.08.
In the case of FQELAGKELCAMFEEQFRQRSPLG [S13F], the protein stability index was 2.15.
With FQELAGKELCAMYEEQFRQRSPLG [S13Y], the protein stability index amounted to 2.4.
The result for FQELAGKELCAMDEEQFRQRSPLG [S13D] reads 2.89; that for FQELAGKELCAMEEEQFRQRSPLG [S13E], 2.61.
The result for FQELAGKELCAMTEEQFRQRSPLG [S13T] reads 2.69.
The result for FQELAGKELCAMREEQFRQRSPLG [S13R] reads 2.73.
With FQELAGKELCAMKEEQFRQRSPLG [S13K], the protein stability index was found to be 2.58.
The result for FQELAGKELCAMIEEQFRQRSPLG [S13I] reads 2.19.
As for MQELAGKELCAMSEEQFRQRSPLG [F1M], the protein stability index worked out at 3.98.
For SQELAGKELCAMSEEQFRQRSPLG [F1S], the protein stability index is 4.61.
Under TQELAGKELCAMSEEQFRQRSPLG [F1T] stands 4.55; under QQELAGKELCAMSEEQFRQRSPLG [F1Q], 4.93.
The result for WQELAGKELCAMSEEQFRQRSPLG [F1W] reads 2.93.
With KQELAGKELCAMSEEQFRQRSPLG [F1K], the protein stability index was 4.58.
The result for FQELAGKELCAMSEEQFRQRSELG [P22E] reads 3.15; that for FQELAGKELCAMSEEQFRQRSLLG [P22L], 2.88; that for FQELAGKELCAMSEEQFRQSSPLG [R20S], 2.88.
The result for FQELAGKELCAMSEEQFRQLSPLG [R20L] reads 2.55; that for FQELAGKELCAMSEEQFRQVSPLG [R20V], 2.1.
FQELAGKELCAMSEEQFRQTSPLG [R20T]: the protein stability index worked out at 2.91.
In the case of FQELAGKELCAMSEEQFRQGSPLG [R20G], the protein stability index was 2.49.
Under FQELAGKELCAMSEEQFRQWSPLG [R20W] stands 2.52; under FQELAGKELCAMSEEQFRQDSPLG [R20D], 3.47; under FQELAGKELCAMSEEQFRQKSPLG [R20K], 2.51.
The result for FQEQAGKELCAMSEEQFRQRSPLG [L4Q] reads 3.91; that for FQEGAGKELCAMSEEQFRQRSPLG [L4G], 3.97.
As to FQEMAGKELCAMSEEQFRQRSPLG [L4M], the protein stability index turned out to be 2.6.
Turning to FQEFAGKELCAMSEEQFRQRSPLG [L4F], the protein stability index worked out at 2.84.
Consider FQENAGKELCAMSEEQFRQRSPLG [L4N], for which the protein stability index was 3.8.
Under FQEWAGKELCAMSEEQFRQRSPLG [L4W] stands 2.4.
Under FQEYAGKELCAMSEEQFRQRSPLG [L4Y] stands 2.61; under FQEVAGKELCAMSEEQFRQRSPLG [L4V], 3.85.
The result for FQEKAGKELCAMSEEQFRQRSPLG [L4K] reads 3.59; that for FQEDAGKELCAMSEEQFRQRSPLG [L4D], 4.38; that for FQEEAGKELCAMSEEQFRQRSPLG [L4E], 4.48.
On to FQETAGKELCAMSEEQFRQRSPLG [L4T], for which the protein stability index is 3.94.
